{"source": "patent US20170306002A1", "about": "(UNITED STATES OF AMERICA AS REPESENTED BY THE SECRETARY …, published 2017)", "binders": {"B1": {"name": "mAb CD6 (whole IgG) (antibody, V domains shown)", "VH": "QVKLQESGGGLVQPKGSLKLSCAASGFTFNTYAMNWVRQAPGKGLEWVARIRSKSNNYATFYADSVKDRFTISRDDSQSMLYLQMHNLKTDDTAMYYCVRPSIYYYASGYLDVWGAGTTVTVSS", "VL": "QIVLSQSPAILSASPGEKVTMTCRTSSSVSYMHWYQQKPGSSPKPWIYATSNLASGVPFRFSGSGSGTSYSLTISRVEAEDAATYYCQQWNSNPPTFGGGTKLEIKR"}}, "biological_target": "recombinant CA/09 NA protein (baculovirus, with N-terminal His-tag, tetramerization domain and thrombin site) (human; influenza A virus …, UniProt P50552 336-380)", "sequence (P50552 336-380)": "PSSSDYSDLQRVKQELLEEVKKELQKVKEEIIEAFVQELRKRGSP", "data": [{"binder": "B1", "values": [{"measurement": "Kd", "value": "~95", "unit": "nM"}]}]}
